Here are results for one molecule from patent US20050226874A1 (CENTRE NATIONAL DE LA RECHERCHE SCIENTIFIQUE CNRS A …, published 2005).

For the experiment, the target named is T1, soluble human recombinant CD4 expressed in baculovirus (human, UniProt P01730 26-396, limits assumed).
T1 construct: Coated on plates for the ELISA and covalently immobilised on the sensor for BIAcore; Only called soluble; also called soluble CD4; CD4 expressed in the baculovirus
Put plainly: ELISA on coated baculovirus-expressed soluble CD4, anti-human kappa-peroxidase, A490 [panel Mutants CDR-H 13B8.2]. As to the method:
A 1:500 dilution of the CD4 fraction expressed by the baculovirus in 0.1 M carbonate/bicarbonate buffer, pH 9.6, was incubated overnight at 4° C. on 96-well enzymatic immunoanalysis plates (Nunc, Paisley, UK). Four washings with the phosphate saline buffer (PBS) 160 mM pH 7.2, containing 0.1% Tween 20 (PBD-T), were performed before and after the saturation of the microplates, with powdered skim milk at a concentration of 1% in the PBS-T for one hour at 37° C.
In general terms: In an ELISA, binding on a coated surface is turned into a signal by an enzyme label.

B1: mutant Fab Y102-H of the 13B8.2 antibody (Fab, V domains shown)
VH: QVQLKQSGPGLVQPSQSLSITCTVSGFSLTTFGVHWVRQSPGKGLEWLGVIWRSGITDYNVPFMSRLSITKDNSKSQVFFKLNSLQPDDTAIYYCAKNDPGTGFAAWGQGTLVTVSA
VL: DIQMTQSPASLSASVGETVTFTCRASENIYSYLAWYQQKQGKSPQLLVHDAKTLAEGVPSRFSGGGSGTQFSLKINTLQPEDFGTYYCQHHYGNPPTFGGGTKLEIK
notes: Chimeric Fab with human CH1-γ1 and Cκ; baculovirus/Sf9
As for B1, the binding result is on record as “binds”.
